Reference: publication PMC3425481, “Differential Regulation of Smad3 and of the Type II Transforming Growth Factor-β Receptor in Mitosis: Implications for Signaling” (PLoS ONE, 2012)

Target: T1, Smad3 phosphorylated at the C-terminus (pSmad3C) (human (endogenous in ES-2), UniProt P84022 1-425, phospho-serines 423/425 (C-terminal SSXS motif))
T1 construct: Smad3, endogenous in human ES-2 ovarian cancer cells, precipitated with α-pSmad3C (raised against phospho-serines 423/425 of Smad3); The α-pSmad3C antibody cross-reacts with C-terminus phosphorylated Smad2; In 2ME2-arrested cells Smad3 is also phosphorylated on threonine 179, but pSmad3(179) was detected inconsistently in the immunoprecipitates; also called C-terminally phosphorylated Smad3; …
T1 sequence (P84022 whole entry): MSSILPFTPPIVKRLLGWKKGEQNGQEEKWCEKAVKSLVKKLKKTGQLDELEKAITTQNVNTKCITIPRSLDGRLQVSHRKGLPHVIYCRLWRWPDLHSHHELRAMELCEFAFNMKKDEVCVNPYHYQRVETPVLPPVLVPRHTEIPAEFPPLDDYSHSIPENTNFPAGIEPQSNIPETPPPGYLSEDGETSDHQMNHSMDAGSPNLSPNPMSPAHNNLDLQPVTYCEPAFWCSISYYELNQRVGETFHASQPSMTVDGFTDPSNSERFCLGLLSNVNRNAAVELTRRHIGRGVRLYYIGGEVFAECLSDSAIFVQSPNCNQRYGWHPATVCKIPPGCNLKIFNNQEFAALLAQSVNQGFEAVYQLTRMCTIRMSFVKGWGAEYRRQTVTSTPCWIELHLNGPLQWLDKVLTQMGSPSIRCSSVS
Assay: co-IP; immunoprecipitation with α-pSmad3C (overnight, 4°C) and protein A-sepharose from lysates of 10^8 ES-2 cells treated with TGF-β1 (1 h) or 2ME2 (16 h); 420 mM NaCl, 50 mM Hepes pH 7.8, 5 mM EDTA, 1% NP-40, 3% DTT; blots with α-Ski, α-Smurf2, α-tSmad2/3; control: sepharose beads alone
Details: partners not purified

B1: Ski (natural protein, human (endogenous in ES-2), UniProt P12755 1-728, looked up)
chain: MEAAAGGRGCFQPHPGLQKTLEQFHLSSMSSLGGPAAFSARWAQEAYKKESAKEAGAAAVPAPVPAATEPPPVLHLPAIQPPPPVLPGPFFMPSDRSTERCETVLEGETISCFVVGGEKRLCLPQILNSVLRDFSLQQINAVCDELHIYCSRCTADQLEILKVMGILPFSAPSCGLITKTDAERLCNALLYGGAYPPPCKKELAASLALGLELSERSVRVYHECFGKCKGLLVPELYSSPSAACIQCLDCRLMYPPHKFVVHSHKALENRTCHWGFDSANWRAYILLSQDYTGKEEQARLGRCLDDVKEKFDYGNKYKRRVPRVSSEPPASIRPKTDDTSSQSPAPSEKDKPSSWLRTLAGSSNKSLGCVHPRQRLSAFRPWSPAVSASEKELSPHLPALIRDSFYSYKSFETAVAPNVALAPPAQQKVVSSPPCAAAVSRAPEPLATCTQPRKRKLTVDTPGAPETLAPVAAPEEDKDSEAEVEVESREEFTSSLSSLSSPSFTSSSSAKDLGSPGARALPSAVPDAAAPADAPSGLEAELEHLRQALEGGLDTKEAKEKFLHEVVKMRVKQEEKLSAALQAKRSLHQELEFLRVAKKEKLREATEAKRNLRKEIERLRAENEKKMKEANESRLRLKRELEQARQARVCDKGCEAGRLRAKYSAQIEDLQVKLQHAEADREQLRADLLREREAREHLEKVVKELQEQLWPRARPEAAGSEGAAELEP
notes: Ski, endogenous in human ES-2 ovarian cancer cells, detected with α-Ski (Santa Cruz); source: endogenous, ES-2 cell lysate
- fold increase of the Ski/tSmad3 ratio in the anti-pSmad3C immunoprecipitate, 2ME2-arrested cells relative to TGF-β1-activated cells: 7.7 ± 1.7 fold
